The text below walks through data of patent US20180303952A1 (CYTOMX THERAPEUTICS, published 2018).

For this assay, the target named is T1, human CD147 protein (adsorbed to ELISA plates) (human, UniProt P35613-2 22-205, limits assumed).
T1 construct: also called human CD147 polypeptide; Basigin
T1 sequence (looked up): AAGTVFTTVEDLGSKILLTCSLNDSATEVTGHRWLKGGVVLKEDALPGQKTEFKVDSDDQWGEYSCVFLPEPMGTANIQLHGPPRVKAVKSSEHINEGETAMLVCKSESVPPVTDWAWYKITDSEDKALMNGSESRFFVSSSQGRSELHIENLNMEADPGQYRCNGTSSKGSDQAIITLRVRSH
The experiment in a line: ELISA, human CD147 protein adsorbed to plate, intact activatable antibody; apparent KD. The protocol: Humanized anti-human CD147 antibodies of the present disclosure hu 3A11 Hc1/Lc1 (VL of SEQ ID NO: 5 and VH of SEQ ID NO: 1) were used as a control.
Using a standard ELISA protocol, human CD147 protein was absorbed to ELISA plates and subsequently incubated with the indicated concentration of antibody of the present disclosure. Bound humanized activatable antibody of the present disclosure was detected with anti-human Fab-peroxidase secondary antibody and Ultra TMB detection (Thermo Fisher Scientific).
For orientation: An ELISA detects its analyte on a solid surface through an enzyme-linked reagent.

Where a chain is given by its changes, count along the chain named.

B1: anti-human CD147 activatable antibody hu 3A11 Hc1/Lc1-217-3001 (antibody)
VH: EVQLVESGGGLVQPGGSLRLSCAASGFTFSNYWMDWVRQAPGKGLEWVGEIRLKSYNYATHYAASVKGRFTISRDDSKNSVYLQMNSLKTEDTAVYYCTAAGTDYWGQGTLVTVSS
VL: QSLFCSGFRCDQYASGGGSSGGSAVGLLAPPGGLSGRSDNHGGSDIQMTQSPSSLSASVGDRVTITCRASQSVRTDVGWYQQKPGKAPKLLIYYSSNRYTGVPSRFSGSGSGTDFTLTISSLQPEDFATYYCQQDYSSPYTFGQGTKLEIK
notes: also called hu 3A11-217-3001
For B1, the Kd is 1.61 nM.

B2: anti-human CD147 activatable antibody hu 3A11 Hc1/Lc1-216-3001 (antibody)
VH: B1 VH
VL: HGPCHYNFNSGCAQFGGGSSGGSAVGLLAPPGGLSGRSDNHGGSDIQMTQSPSSLSASVGDRVTITCRASQSVRTDVGWYQQKPGKAPKLLIYYSSNRYTGVPSRFSGSGSGTDFTLTISSLQPEDFATYYCQQDYSSPYTFGQGTKLEIK
notes: also called hu 3A11-216-3001
With B2, the Kd was found to be 0.89 nM.

B3: anti-human CD147 activatable antibody hu 3A11 Hc1/Lc1-440-3001 (antibody)
VH: B1 VH
VL: TCLHLTRFNYLSCNKGGGSSGGSAVGLLAPPGGLSGRSDNHGGSDIQMTQSPSSLSASVGDRVTITCRASQSVRTDVGWYQQKPGKAPKLLIYYSSNRYTGVPSRFSGSGSGTDFTLTISSLQPEDFATYYCQQDYSSPYTFGQGTKLEIK
notes: also called hu 3A11-440-3001
Take B3: the Kd turned out to be 1.23 nM.

B4: anti-human CD147 activatable antibody hu 3A11 Hc1/Lc1-419-3001 (antibody)
VH: B1 VH
VL: LHGPCHYDLKCKNNTGGGSSGGSAVGLLAPPGGLSGRSDNHGGSDIQMTQSPSSLSASVGDRVTITCRASQSVRTDVGWYQQKPGKAPKLLIYYSSNRYTGVPSRFSGSGSGTDFTLTISSLQPEDFATYYCQQDYSSPYTFGQGTKLEIK
notes: also called hu 3A11-419-3001
With B4, the Kd was determined as 9.43 nM.

B5: anti-human CD147 activatable antibody hu 3A11 Hc1/Lc1-416-3001 (antibody)
VH: B1 VH
VL: WQRECSQKNICQYYIGGGSSGGSAVGLLAPPGGLSGRSDNHGGSDIQMTQSPSSLSASVGDRVTITCRASQSVRTDVGWYQQKPGKAPKLLIYYSSNRYTGVPSRFSGSGSGTDFTLTISSLQPEDFATYYCQQDYSSPYTFGQGTKLEIK
notes: also called hu 3A11-416-3001
For the molecule B5, the Kd is 0.49 nM.

B6: anti-human CD147 activatable antibody hu 3A11 Hc1/Lc1-215-3001 (antibody)
VH: B1 VH
VL: RYQSCHSYWCTEGNHGGGSSGGSAVGLLAPPGGLSGRSDNHGGSDIQMTQSPSSLSASVGDRVTITCRASQSVRTDVGWYQQKPGKAPKLLIYYSSNRYTGVPSRFSGSGSGTDFTLTISSLQPEDFATYYCQQDYSSPYTFGQGTKLEIK
notes: also called hu 3A11-215-3001
Turning to B6, the Kd turned out to be 5.53 nM.

B7: anti-human CD147 activatable antibody hu 3A11 Hc1/Lc1-445-3001 (antibody)
VH: B1 VH
VL: B4 VL with L1S, Y7F, L9Y, K10Q, K12I
notes: also called hu 3A11-445-3001
Turning to B7, the Kd was found to be 7.86 nM.

B8: anti-human CD147 activatable antibody hu 3A11 Hc1/Lc1-443-3001 (antibody)
VH: B1 VH
VL: B4 VL with L1A, D8N, L9T, K10E, K12N, N13S, T15K
notes: also called hu 3A11-443-3001
Take B8: the Kd worked out at 7.4 nM.

B9: anti-human CD147 activatable antibody hu 3A11 Hc1/Lc1-221-3001 (antibody)
VH: B1 VH
VL: B4 VL with L1D, D8V, L9S, K10C, C11T, K12T, N13I, T15H
notes: also called hu 3A11-221-3001
With B9, the Kd turned out to be 2.5 nM.

B10: anti-human CD147 activatable antibody hu 3A11 Hc1/Lc1-415-3001 (antibody)
VH: B1 VH
VL: B4 VL with Y7F, D8N, L9N, K10C, C11N, K12T, N13L, N14K, T15L
notes: also called hu 3A11-415-3001
Regarding B10, the Kd is 4.72 nM.

B11: anti-human CD147 activatable antibody hu 3A11 Hc1/Lc1-253-3001 (antibody)
VH: B1 VH
VL: B4 VL with L1V, Y7W, D8S, L9V, K10E, K12L, N13S, T15V
notes: also called hu 3A11-253-3001
Regarding B11, the Kd turned out to be 0.87 nM.

B12: anti-human CD147 activatable antibody hu 3A11 Hc1/Lc1-422-3001 (antibody)
VH: B1 VH
VL: B4 VL with D8M, L9N, K10T, K12H, N14V, T15K
notes: also called hu 3A11-422-3001
B12: the Kd is 1.55 nM.

B13: anti-human CD147 activatable antibody hu 3A11 Hc1/Lc1-428-3001 (antibody)
VH: B1 VH
VL: B4 VL with L1W, D8T, L9K, K10C, C11D, K12D, N13H, N14T, T15M
notes: also called hu 3A11-428-3001
As for B13, the Kd is 7.63 nM.
